Paper PMC12335590

Biological target: mouse platelet glycoprotein Ibα (mouse (endogenous in platelets)) (UniProt O35930)
Chain of UniProt O35930 (O35930 17-734): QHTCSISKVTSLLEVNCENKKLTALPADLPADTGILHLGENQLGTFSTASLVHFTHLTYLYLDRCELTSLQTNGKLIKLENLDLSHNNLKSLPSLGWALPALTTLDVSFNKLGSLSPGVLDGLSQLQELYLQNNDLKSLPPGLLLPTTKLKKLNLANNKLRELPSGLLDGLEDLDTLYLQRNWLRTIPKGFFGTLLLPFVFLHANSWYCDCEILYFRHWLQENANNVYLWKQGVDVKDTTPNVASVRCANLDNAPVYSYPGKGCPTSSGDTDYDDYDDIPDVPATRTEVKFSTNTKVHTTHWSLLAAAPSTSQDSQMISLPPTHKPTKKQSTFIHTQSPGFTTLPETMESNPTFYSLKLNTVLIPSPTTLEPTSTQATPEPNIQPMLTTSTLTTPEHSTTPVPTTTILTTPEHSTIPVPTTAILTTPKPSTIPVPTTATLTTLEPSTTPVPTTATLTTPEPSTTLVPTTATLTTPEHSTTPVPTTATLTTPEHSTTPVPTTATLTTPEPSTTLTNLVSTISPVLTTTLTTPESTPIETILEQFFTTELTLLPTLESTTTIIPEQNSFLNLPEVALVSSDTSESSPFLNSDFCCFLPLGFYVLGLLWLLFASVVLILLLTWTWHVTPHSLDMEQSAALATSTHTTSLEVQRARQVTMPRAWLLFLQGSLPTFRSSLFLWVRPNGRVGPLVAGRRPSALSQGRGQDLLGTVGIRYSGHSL

With “recombinant mouse von Willebrand factor, Q8CIZ8 764-2813” as the substance, how does the translocation (rolling) velocity of Mical1+/+ platelets on immobilised recombinant mouse VWF at 1500 s-1 after αIIbβ3 blockade read?
Its translocation (rolling) velocity of Mical1+/+ platelets on immobilised recombinant mouse VWF at 1500 s-1 after αIIbβ3 blockade is 1.41 μm/s.
